# Data from US10239925B2, “Peptides and combination of peptides for use in immunotherapy against ovarian cancer and other cancers” (IMMATICS BIOTECHNOLOGIES GMBH, priority 2015, dated 2019).
# Target: HLA-A*02:01 (Homo sapiens, UniProt P04439, D140Y/D185E/D98H/E176V/E277Q/G131W/G231S/I119V/I121R/I166T/I218V/L300P/L318F/N151K/N90K/P208A/P217A/Q86G/Q94H/R138H/R169H/T345S)
# Assay: MHC binding assay (UV-ligand exchange, anti-β2m ELISA, peptide exchange yield)
# Details: binding to HLA-A*02:01
# Text: Candidate peptides for T cell based therapies according to the present invention were further tested for their MHC binding capacity (affinity). The individual peptide-MHC complexes were produced by UV-ligand exchange, where a UV-sensitive peptide is cleaved upon UV-irradiation, and exchanged with the peptide of interest as analyzed. Only peptide candidates that can effectively bind and stabilize the peptide-receptive MHC molecules prevent dissociation of the MHC complexes. To determine the yield of the exchange reaction, an ELISA was performed based on the detection of the light chain (β2m) of stabilized MHC complexes. The assay was performed as generally described in Rodenko et al. (Rodenko et al., 2006).
# 96 well MAXISorp plates (NUNC) were coated over night with 2 ug/ml streptavidin in PBS at room temperature, washed 4× and blocked for 1h at 37° C. in 2% BSA containing blocking buffer. […] Peptide-MHC monomers of the UV-exchange reaction were diluted 100 fold in blocking buffer. Samples were incubated for 1 h at 37° C., washed four times, incubated with 2 ug/ml HRP conjugated anti-β2m for 1h at 37° C., washed again and detected with TMB solution that is stopped with […]. Absorption was measured at 450 nm. Candidate peptides that show a high exchange yield (preferably higher than 50%, most preferred higher than 75%) are generally preferred for a generation and production of antibodies or fragments thereof, and/or T cell receptors or fragments thereof, as they show sufficient avidity to the MHC molecules and prevent dissociation of the MHC complexes.
row,Substance,"Peptide exchange (MHC class I binding score, peptide exchange yield)"
1,122 (FLLAEDDIYL; listed as Homo sapiens) [compound 122],“+++” (>50 = +++)
2,610 (LLAPTPYIIGV; listed as Homo sapiens) [compound 610],“+++” (>50 = +++)
3,88 (FLLVGDLMAV; listed as Homo sapiens) [compound 88],“+++” (>50 = +++)
4,402 (VLFSGALLGL; listed as Homo sapiens) [compound 402],“++” (>20% = ++)
5,468 (YLRSVGDGETV; listed as Homo sapiens) [compound 468],“+++” (>50 = +++)
6,444 (GLLRDEALAEV; listed as Homo sapiens) [compound 444],“+++” (>50 = +++)
7,617 (ALMYESEKVGV; listed as Homo sapiens) [compound 617],“+++” (>50 = +++)
8,265 (LLFGGTKTV; listed as Homo sapiens) [compound 265],“++” (>20% = ++)
9,456 (LLIGHLERV; listed as Homo sapiens) [compound 456],“+++” (>50 = +++)
10,82 (FLSSVTYNL; listed as Homo sapiens) [compound 82],“+++” (>50 = +++)
11,612 (YLYNEGLSV; listed as Homo sapiens) [compound 612],“+++” (>50 = +++)
12,522 (TLWYRSPEV; listed as Homo sapiens) [compound 522],“++” (>20% = ++)

# Next, values leading:
row,"Peptide exchange (MHC class I binding score, peptide exchange yield)",Substance
1,“+++” (>50 = +++),106 (LLYDAVHIVSV; listed as Homo sapiens) [compound 106]
2,“++” (>20% = ++),63 (YLLPSGGSVTL; listed as Homo sapiens) [compound 63]
3,“+++” (>50 = +++),592 (RLLSAAENFL; listed as Homo sapiens) [compound 592]
4,“+++” (>50 = +++),288 (NLINEINGV; listed as Homo sapiens) [compound 288]
5,“+++” (>50 = +++),492 (SLFDGFADGLGV; listed as Homo sapiens) [compound 492]
6,“+++” (>50 = +++),588 (SLLPLSHLV; listed as Homo sapiens) [compound 588]
7,“++” (>20% = ++),227 (ALMNTLLYL; listed as Homo sapiens) [compound 227]
8,“+++” (>50 = +++),120 (ALLGIPLTLV; listed as Homo sapiens) [compound 120]
9,“+++” (>50 = +++),160 (FLFDEEIEQI; listed as Homo sapiens) [compound 160]
10,“+++” (>50 = +++),345 (VIWKALIHL; listed as Homo sapiens) [compound 345]
11,“++” (>20% = ++),140 (YMDAPKAAL; listed as Homo sapiens) [compound 140]
12,“+++” (>50 = +++),249 (LLDGFLVNV; listed as Homo sapiens) [compound 249]
13,“+++” (>50 = +++),187 (RQISIRGIVGV; listed as Homo sapiens) [compound 187]
14,“++++” (>75% = ++++),52 (FLLAHGLGFLL; listed as Homo sapiens) [compound 52]
15,“+++” (>50 = +++),346 (LLDSKVPSV; listed as Homo sapiens) [compound 346]
16,“++” (>20% = ++),172 (VLYSYTIITV; listed as Homo sapiens) [compound 172]
